# Assay results published in US20180023146A1 (CLEVELAND CLINIC FOUNDATION, published 2018).
# B1: AMFR (autocrine mobility factor receptor) (enzyme, UniProt Q9UKV5 1-643, looked up)
# chain: MPLLFLERFPWPSLRTYTGLSGLALLGTIISAYRALSQPEAGPGEPDQLTASLQPEPPAPARPSAGGPRARDVAQYLLSDSLFVWVLVNTACCVLMLVAKLIQCIVFGPLRVSERQHLKDKFWNFIFYKFIFIFGVLNVQTVEEVVMWCLWFAGLVFLHLMVQLCKDRFEYLSFSPTTPMSSHGRVLSLLVAMLLSCCGLAAVCSITGYTHGMHTLAFMAAESLLVTVRTAHVILRYVIHLWDLNHEGTWEGKGTYVYYTDFVMELTLLSLDLMHHIHMLLFGNIWLSMASLVIFMQLRYLFHEVQRRIRRHKNYLRVVGNMEARFAVATPEELAVNNDDCAICWDSMQAARKLPCGHLFHNSCLRSWLEQDTSCPTCRMSLNIADNNRVREEHQGENLDENLVPVAAAEGRPRLNQHNHFFHFDGSRIASWLPSFSVEVMHTTNILGITQASNSQLNAMAHQIQEMFPQVPYHLVLQDLQLTRSVEITTDNILEGRIQVPFPTQRSDSIRPALNSPVERPSSDQEEGETSAQTERVPLDLSPRLEETLDFGEVEVEPSEVEDFEARGSRFSKSADERQRMLVQRKDELLQQARKRFLNKSSEDDAASESFLPSEGASSDPVTLRRRMLAAAAERRLQKQQTS
# notes: It appears to be the protein of the human 293T cells, co-immunoprecipitated with HA-tagged 3βHSD1; also called gp78; ubiquitin E3-ligase AMFR
# Biological target: T1, 3βHSD1 (367N)-HA (human, UniProt P14060 2-373)
# T1 construct: Expressed from pCMX-HSD3B1-HA in 293T cells and immunoprecipitated with anti-HA antibody; also called HSD3B1(N)-HA; not shown: HA tag fused to HSD3B1
# T1 sequence (looked up): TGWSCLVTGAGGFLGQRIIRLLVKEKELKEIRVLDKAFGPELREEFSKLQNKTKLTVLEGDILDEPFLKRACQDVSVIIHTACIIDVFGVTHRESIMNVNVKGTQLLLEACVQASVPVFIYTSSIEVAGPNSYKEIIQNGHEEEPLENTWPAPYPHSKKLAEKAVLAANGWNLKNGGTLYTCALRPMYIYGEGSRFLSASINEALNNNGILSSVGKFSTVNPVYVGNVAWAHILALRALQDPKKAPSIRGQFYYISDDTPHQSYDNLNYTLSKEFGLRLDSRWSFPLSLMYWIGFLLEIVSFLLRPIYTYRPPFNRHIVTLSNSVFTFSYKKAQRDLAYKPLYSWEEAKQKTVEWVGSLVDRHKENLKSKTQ
# Assay: SILAC with high-resolution mass spectrometry; 367N-HA (heavy) and 367T-HA (light) immunoprecipitations mixed 1:1
binder,measurement,value
B1,normalized protein ratio (SILAC; 3βHSD1 (367N)-HA against 3βHSD1 (367T)-HA immunoprecipitates),1.67
